# From patent US20260062487A1 (GRITSTONE BIO, published 2026)
# B1: monovalent Format 3-E07-hOKT3a antibody (bispecific antibody, V domains shown)
# VH 1: QVQLVQSGAEVKKPGASVKVSCKASGFTFTNYLIHWVRQAPGQGLEWMGWINPNSGGTNYAQRLQGRVTMTRDTSTSTVYMELSSLRSEDTAVYYCARDYGAGNDYWGQGTLVTVSS
# VL 1: DIQMTQSPSSLSASVGDRVTITCRASQEIRRWLAWYQQKPGKAPKLLIYAASNLQSGVPSRFSGSGSGTDFTLTISSLQPEDFATYYCQQSYSTPYTFGQGTKLEIK
# VH 2: QVQLVQSGAEVKKPGASVKVSCKASGYTFTRYTMHWVRQAPGQGLEWMGYINPSRGYTNYNQKFKDRVTLTTDKSSSTAYMELSSLRSEDTAVYYCARYYDDHYSLDYWGQGTLVTVSS
# VL 2: DIQMTQSPSSLSASVGDRVTITCSASSSVSYMNWYQQKPGKAPKRLIYDTSKLASGVPSRFSGSGSGTDFTLTISSLQPEDFATYYCQQWSSNPFTFGQGTKLEIK
# B2: 41-E07 hOKT3a diabody (Format 41 31E07-CD3 bispecific antibody) (bispecific antibody, human IgG1, kappa)
# chain: QVQLVQSGAEVKKPGASVKVSCKASGFTFTNYLIHWVRQAPGQGLEWMGWINPNSGGTNYAQRLQGRVTMTRDTSTSTVYMELSSLRSEDTAVYYCARDYGAGNDYWGQGTLVTVSSGGGGSGGGGSDIQMTQSPSSLSASVGDRVTITCRASQEIRRWLAWYQQKPGKAPKLLIYAASNLQSGVPSRFSGSGSGTDFTLTISSLQPEDFATYYCQQSYSTPYTFGQGTKLEIKGGGGSEPKSSDKTHTCPPCPAPEFEGGPSVFLFPPKPKDTLMISRTPEVTCVVVDVSHEDPEVKFNWYVDGVEVHNAKTKPREEQYNSTYRVVSVLTVLHQDWLNGKEYKCKVSNKALPASIEKTISKAKGQPREPQVYTLPPCREEMTKNQVSLWCLVKGFYPSDIAVEWESNGQPENNYKTTPPVLDSDGSFFLYSKLTVDKSRWQQGNVFSCSVMHEALHNHYTQKSLSLSPGK
# heavy: QVQLVQSGAEVKKPGASVKVSCKASGFTFTNYLIHWVRQAPGQGLEWMGWINPNSGGTNYAQRLQGRVTMTRDTSTSTVYMELSSLRSEDTAVYYCARDYGAGNDYWGQGTLVTVSSGGGGSGGGGSDIQMTQSPSSLSASVGDRVTITCRASQEIRRWLAWYQQKPGKAPKLLIYAASNLQSGVPSRFSGSGSGTDFTLTISSLQPEDFATYYCQQSYSTPYTFGQGTKLEIKGGGGSGGGGSQVQLVQSGAEVKKPGASVKVSCKASGYTFTRYTMHWVRQAPGQGLEWMGYINPSRGYTNYNQKFKDRVTLTTDKSSSTAYMELSSLRSEDTAVYYCARYYDDHYSLDYWGQGTLVTVSSASTKGPSVFPLAPSSKSTSGGTAALGCLVKDYFPEPVTVSWNSGALTSGVHTFPAVLQSSGLYSLSSVVTVPSSSLGTQTYICNVNHKPSNTKVDKRVEPKSCDKTHTCPPCPAPEFEGGPSVFLFPPKPKDTLMISRTPEVTCVVVDVSHEDPEVKFNWYVDGVEVHNAKTKPREEQYNSTYRVVSVLTVLHQDWLNGKEYKCKVSNKALPASIEKTISKAKGQPREPQVCTLPPSREEMTKNQVSLSCAVKGFYPSDIAVEWESNGQPENNYKTTPPVLDSDGSFFLVSKLTVDKSRWQQGNVFSCSVMHEALHNRFTQKSLSLSPGK
# light: DIQMTQSPSSLSASVGDRVTITCSASSSVSYMNWYQQKPGKAPKRLIYDTSKLASGVPSRFSGSGSGTDFTLTISSLQPEDFATYYCQQWSSNPFTFGQGTKLEIKRTVAAPSVFIFPPSDEQLKSGTASVVCLLNNFYPREAKVQWKVDNALQSGNSQESVTEQDSKDSTYSLSSTLTLSKADYEKHKVYACEVTHQGLSSPVTKSFNRGEC
# notes: also called E07-CD3 diabody; 41-31E07-hOKT3a
# How the values were obtained:
# [1] = molecular target: T1, biotinylated refolded A*01:01/b2m with … (alanine at position 9) (human, UniProt P61769 21-119); test: BLI (Octet), biotinylated pHLA on streptavidin sensor, antibody as analyte;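 also: pHLA biotinylated through a C-terminal AviTag for uniform orientation, sensor data background-normalized, rate constants from global 1:1 kinetic fitting in Octet software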
# Protocol: (§1) All the assay conditions were prepared in a volume of 200 μL. The pHLA complex biotinylated at the C-terminal AviTag was used to ensure uniform directionality of the protein. […] Using the ForteBio Data Analysis suite, the data was normalized to the association curves followed by background normalization. Curve fitting using global fitting of the sensor data with the Octet™ software using 1:1 kinetic model with errors within 10%, X2below 3, and R2above 0.9 to determine the association and dissociation constants.
# [2] = molecular target: biotinylated refolded A*01:01/b2m with … (Ala 6) (human, UniProt P61769 21-119); test: as above
# Protocol: as §1
# [3] = molecular target: T2, biotinylated refolded G2-pHLA (A*01:01/b2m/…) (human, biotinylated at the C-terminal AviTag); test: as above
# T2 construct: Soluble complex caught on streptavidin sensors or MSD plates; also called G2-peptide A*01:01/b2m complex; WT
# Protocol: as §1
# [4] = molecular target: biotinylated refolded A*01:01/b2m with … (Ala 1) (human, UniProt P61769 21-119); test: as above
# Protocol: as §1
# [5] = molecular target: biotinylated refolded A*01:01/b2m with … (Ala 4) (human, UniProt P61769 21-119); test: as above
# Protocol: as §1
# [6] = molecular target: biotinylated refolded A*01:01/b2m with … (Ala 2) (human, UniProt P61769 21-119); test: as above
# Protocol: as §1
# [7] = molecular target: biotinylated refolded A*01:01/b2m with … (Ala 5) (human, UniProt P61769 21-119); test: as above
# Protocol: as §1
# [8] = molecular target: biotinylated refolded A*01:01/b2m with […] (Ala 3) (human, UniProt P61769 21-119, biotinylated at the C-terminal AviTag); test: as above
# Protocol: as §1
# [9] = molecular target: biotinylated refolded A*01:01/b2m with … (alanine at position 8) (human, UniProt P61769 21-119); test: as above
# Protocol: as §1
# [10] = molecular target: T1, biotinylated refolded A*01:01/b2m with …; test: BLI (Octet), biotinylated pHLA on streptavidin sensor
# Protocol: as §1
# [11] = molecular target: T3, A*01:01 with … (V or E 6) on pulsed K562-HLA cells (human); test: flow cytometry, K562-HLA cells pulsed with peptide
# T3 construct: whole, on cells
# [12] = molecular target: T4, A*01:01 with … (V or E 5) on pulsed K562-HLA cells (human); test: flow cytometry, K562-HLA cells pulsed with peptide
# T4 construct: whole, on cells
# [13] = molecular target: T5, HLA-PEPTIDE target A*01:01_… (G2) on cells (human); test: flow cytometry, K562-HLA cells pulsed with peptide
# T5 construct: whole, on cells; also recovered from cell lysates in the IP-MS experiment; also called G2 pHLA; G2 target
# [14] = molecular target: T6, A*01:01 with … (V or E 3) on pulsed K562-HLA cells (human); test: flow cytometry, K562-HLA cells pulsed with peptide
# T6 construct: whole, on cells
# [15] = molecular target: T7, A*01:01 with … (V or E 2) on pulsed K562-HLA cells (human); test: flow cytometry, K562-HLA cells pulsed with peptide
# T7 construct: whole, on cells
# [16] = molecular target: T8, A*01:01 with … (V or E 4) on pulsed K562-HLA cells (human); test: flow cytometry, K562-HLA cells pulsed with peptide
# T8 construct: whole, on cells
# [17] = molecular target: T9, A*01:01 with … (V or E 1) on pulsed K562-HLA cells (human); test: flow cytometry, K562-HLA cells pulsed with peptide
# T9 construct: whole, on cells
# [18] = molecular target: T5, HLA-PEPTIDE target A*01:01_… (G2) on …; test: flow cytometry, anti-IgG PE, peptide-pulsed K562 cells
# Protocol: (§2) HLA-transduced K562 cells were pulsed the night before with 50 μM of peptide (Genscript) in IDMEM containing 1% FBS in 6 well plates and incubated under standard tissue culture conditions. Cells were harvested, washed in PBS, and stained with eBioscience Fixable Viability Dye eFluor 450 for 15 minutes at room temperature. […] After another wash, PE-conjugated goat anti-human IgG secondary antibody (Jackson ImmunoResearch) was added at 1:100. After incubating at 4° C. for 45 minutes and washing in PBS+2% FBS, cells were resuspended in PBS+2% FBS and analyzed by flow cytometry. Flow cytometric analysis was performed on the Attune NxT Flow Cytometer (ThermoFisher) using the Attune NxT Software. Data was analyzed using FlowJo.
# [19] = molecular target: T5, HLA-PEPTIDE target A*01:01_… (G2) on …; test: cell-based or functional assay
# [20] = molecular target: T5, HLA-PEPTIDE target A*01:01_… (G2) on …; test: flow cytometry, anti-IgG PE, K562-A01:01 cells pulsed with peptide (20,000 to 40,000 copies/cell)
# Protocol: as §2
# [21] = molecular target: T10, off-target HLA-A*01:01_… (KDM7A) on cells (human); test: as above
# T10 construct: whole, on cells; also called validated OTLA; Control peptide-4
# Protocol: as §2
# [22] = molecular target: T5, HLA-PEPTIDE target A*01:01_… (G2) on …; test: IP-MS, NCI-H1703 lysate, Rep2
# Protocol: (§3) 2×10⁸ cells expressing A*01:01/CT83 (NCI-H1703, A375±CT83) were re-suspended in 5 ml lysis buffer (1% CHAPS, 150 mM sodium chloride, 20 mM Tris pH 8) in the presence of phosphatase, and protease inhibitors. The cells were homogenized by sonication, rotated at 4° C. for 1 hr, and spun at 21,000×g for 30 min. to pellet cell debris.
# (§4) After immunoprecipitation, the IP beads were isolated using filter plates, then washed to remove non-specific binding using Tris pH 8 buffers with increasing levels of NaCl. The HLA/peptide complex was eluted from the beads using 2N acetic acid. The protein components were removed from the peptides using C18 fractionation. The resultant peptides were taken to dryness by SpeedVac evaporation and stored at −20° C. prior to MS analysis.
# [23] = molecular target: T11, off-target HLA-A*01:01_… (ICE1) on cells (human); test: IP-MS, NCI-H1703 lysate, Rep2
# T11 construct: whole, on cells; also called … (IC1); validated OTLA
# Protocol: as §3, §4
# [24] = molecular target: T12, off-target HLA-A*01:01_… (PTS) on cells (human); test: IP-MS, NCI-H1703 lysate, Rep2
# T12 construct: whole, on cells; also called validated OTLA; Control peptide-3
# Protocol: as §3, §4
# [25] = molecular target: T13, HLA-A*01:01 with … (ERGIC3) from cells (human); test: IP-MS, NCI-H1703 lysate, Rep2
# T13 construct: whole, on cells
# Protocol: as §3, §4
# [26] = molecular target: T5, HLA-PEPTIDE target A*01:01_… (G2) on …; test: flow cytometry, anti IgG PE, A375 9mer cells (1e6 copies per cell)
# Protocol: A375 transduced with luciferase alone served as the negative control. […] Binding was determined by flow cytometery using an anti IgG-PE antibody for detection.
# [27] = molecular target: T13, HLA-A*01:01 with … (ERGIC3) from cells; test: IP-MS, K562-A*01:01 lysate (ND: Not detected; W6/32 recovers the peptide)
# Protocol: as §3, §4
# [28] = molecular target: T5, HLA-PEPTIDE target A*01:01_… (G2) on …; test: flow cytometry, anti IgG PE, A375 9mer cells (1e6 copies of G2 pHLA per cell)
# [29] = molecular target: T14, G5 pHLA (HLA-B*35:01 with …) on cells (human); test: flow cytometry, peptide-pulsed cells
# T14 construct: whole, on cells
# Protocol: as §2
# [30] = molecular target: T15, CD3 on CD3+ Jurkat cells (human, UniProt P07766 23-207); test: flow cytometry, anti IgG PE, CD3+ Jurkat cells
# T15 construct: whole, on cells
# Protocol: Increasing concentrations of the antibodies were incubated with CD3(+) and CD9(−) Jurkat cells. Binding was determined by flow cytometery using an anti IgG-PE antibody for detection.
# [31] = molecular target: T5, HLA-PEPTIDE target A*01:01_… (G2) on …; test: IP-MS, NCI-H1703 lysate, Rep1
# Protocol: as §3, §4
# [32] = molecular target: T11, off-target HLA-A*01:01_… (ICE1) on cells; test: IP-MS, NCI-H1703 lysate, Rep1
# Protocol: as §3, §4
# [33] = molecular target: T12, off-target HLA-A*01:01_… (PTS) on cells; test: IP-MS, NCI-H1703 lysate, Rep1
# Protocol: as §3, §4
# [34] = molecular target: T13, HLA-A*01:01 with … (ERGIC3) from cells; test: IP-MS, NCI-H1703 lysate, Rep1
# Protocol: as §3, §4
# T15 sequence (P07766 23-207): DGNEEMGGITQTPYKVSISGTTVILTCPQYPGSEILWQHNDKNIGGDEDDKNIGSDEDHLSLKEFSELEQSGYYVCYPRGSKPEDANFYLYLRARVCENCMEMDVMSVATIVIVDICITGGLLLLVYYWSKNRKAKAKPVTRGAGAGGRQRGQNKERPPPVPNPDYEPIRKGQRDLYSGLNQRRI
binder,measurement,setting,value
B1,Max Response (nm),[1],0 nm
same,Fold change in Response (against WT),[2],2.7 fold
same,Fold change in affinity (against WT),[2],13.3 fold
same,Kd,[2],16 nM
same,Max Response (nm),[2],0.09 nm
same,Kd,[3],1.2 nM
same,Max Response (nm),[3],0.24 nm
same,Fold change in affinity (against WT),[4],2.5 fold
same,Kd,[4],3 nM
same,Max Response (nm),[4],0.26 nm
same,Fold change in affinity (against WT),[5],7.3 fold
same,Kd,[5],8.7 nM
same,Max Response (nm),[5],0.24 nm
same,Kd,[6],1.5 nM
same,Max Response (nm),[6],0.24 nm
same,Fold change in affinity (against WT),[7],13.3 fold
same,Kd,[7],16 nM
same,Max Response (nm),[7],0.21 nm
same,Fold change in Response (against WT),[8],1.6 fold
same,Fold change in affinity (against WT),[8],14.2 fold
same,Kd,[8],17 nM
same,Max Response (nm),[8],0.15 nm
same,Fold change in affinity (against WT),[9],6.7 fold
same,Kd,[9],8 nM
same,Max Response (nm),[9],0.24 nm
same,binding result,[10],no binding (tested: typically 500-0 nM antibody)
B2,Max Binding,[11],1400
same,Max Binding,[12],2630
same,Max Binding,[13],5560
same,Max Binding,[14],5680
same,Max Binding,[15],4680
same,Max Binding,[16],1560
same,Max Binding,[17],1880
same,EC50 (read off the curve),[18],~0.06 µg/mL
same,"EC50 (ug/ml), luciferase-cytotoxicity assay with human T cells, A375-CT83 cells",[19],0.00017 µg/mL
same,"EC50 (ug/ml), luciferase-cytotoxicity assay with human T cells, NCI-H820 cells",[19],0.077 µg/mL
same,"EC50 (ug/ml), luciferase-cytotoxicity assay with human T cells, NCI-H1703 cells",[19],0.0025 µg/mL
same,EC50 (read off the curve),[20],~0.3 µg/mL
same,binding result,[21],no binding (tested: 100 ug/ml)
same,copies per cell of the peptide recovered by immunoprecipitation,[22],2960 copies per cell
same,copies per cell of the peptide recovered by immunoprecipitation,[23],32 copies per cell
same,copies per cell of the peptide recovered by immunoprecipitation,[24],42 copies per cell
same,copies per cell of the peptide recovered by immunoprecipitation,[25],37 copies per cell
same,EC50 (read off the curve),[26],~2 nM
same,binding result,[27],no binding
same,EC50 (read off the curve),[28],~3 nM
same,log difference in EC50 against the G2 peptide [..],[29],3 log
same,EC50 (read off the curve),[30],~20 nM
same,copies per cell of the peptide recovered by immunoprecipitation,[31],2960 copies per cell
same,copies per cell of the peptide recovered by immunoprecipitation,[32],33 copies per cell
same,copies per cell of the peptide recovered by immunoprecipitation,[33],40 copies per cell
same,copies per cell of the peptide recovered by immunoprecipitation,[34],34 copies per cell
